Values quoted from earlier work in patent US6759420B1, “Arylalkanoyl derivatives, processes for their preparation, their use and pharmaceutical compositions containing them” (Aventis Pharma Deutschland GmbH, priority 1999, dated 2004).

Assays:
[1] = TAP at levels giving less than about two fold aPTT prolongation; heparin at doses causing a five fold increase in aPTT; cited from earlier work
factor Xa = factor Xa (Homo sapiens, UniProt P00742); details: background statement; cited from earlier work
[2] = recombinantly-produced inhibitor, cited from earlier work; for bleeding time compared to other anticoagulants: animal model systems; for clotting in thromboplastin-induced, ligated jugular vein model of deep vein thrombosis: animal model
thrombin and factor Xa = details: via anti-thrombin III; cited from earlier work
[3] = subcutaneous; cited from earlier work

Chain of factor Xa (P00742 235-488 limits assumed): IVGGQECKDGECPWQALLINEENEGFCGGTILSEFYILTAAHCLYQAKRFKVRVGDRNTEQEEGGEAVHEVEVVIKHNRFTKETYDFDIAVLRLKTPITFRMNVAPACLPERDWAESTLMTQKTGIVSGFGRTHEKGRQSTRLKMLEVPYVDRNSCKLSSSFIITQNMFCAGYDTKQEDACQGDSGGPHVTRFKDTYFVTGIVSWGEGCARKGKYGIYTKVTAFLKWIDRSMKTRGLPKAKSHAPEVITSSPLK
Chain of factor Xa (P00742 41-179 limits assumed): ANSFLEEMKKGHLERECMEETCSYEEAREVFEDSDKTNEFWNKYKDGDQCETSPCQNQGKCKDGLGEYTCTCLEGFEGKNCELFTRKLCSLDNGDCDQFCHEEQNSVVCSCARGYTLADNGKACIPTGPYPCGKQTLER

In the case of “tick anticoagulant peptide (YNRLCIKPRDWIDECDSNEGGERAYFRNGKGGCDSFWICPEDHTGADYYSSYRDCFNACI; UniProt P17726 1-60, looked up) [TAP, reference compound]”, the “"high-shear" arterial thrombosis and "reduced flow" caused by polyester (DACRON) graft” value [1] is given as “effectively prevents”, the Ki (factor Xa) is given as roughly 0.5 nM and the “bleeding time compared to other anticoagulants” value [2] is given as “decrease bleeding time”. For the same molecule, the “clotting in thromboplastin-induced, ligated jugular vein model of deep vein thrombosis” value [2] was “prevent clotting”.

In the case of heparin, the “"high-shear" arterial thrombosis and "reduced flow" caused by polyester (DACRON) graft” value [1] is listed as “did not prevent thrombosis” and the “thrombin inactivated faster than factor Xa” value (thrombin and factor Xa) is listed as “approximately 100 times”.

B1: antistasin (protein, UniProt P15358 18-136, looked up)
Antistasin: QGPFGPGCEEAGCPEGSACNIITDRCTCSGVRCRMHCPHGFQRSRYGCEFCKCRLEPMKATCDISECPEGMMCSRLTNKCDCKIDINCRKTCPNGLKRDKLGCEYCECRPKRKLIPRLS
In the case of B1, the Ki (factor Xa) is given as 0.05 nM, the “bleeding time compared to other anticoagulants” value [2] is given as “decrease bleeding time” and the “clotting in thromboplastin-induced, ligated jugular vein model of deep vein thrombosis” value [2] is given as “prevent clotting”. For the same molecule, the “treatment in thromboplastin-induced model of disseminated intravascular coagulation” value [3] was “effective treatment”.
